The assay has as its target T1, SARS-CoV-2 replicase polyprotein 1ab (CoV-YL8; identical in HKU1 and NL63) peptide on HLA-B*35:03 (human).
T1 peptide: YPDPSRIL
As to the kind of experiment: cytokine release.

B1: CoV-YL8 TCR (TCR)
alpha TRAV1-1 TRAJ4 CDR3: CAVRGISGGYNKLIF
beta TRBV19 TRBJ1-6 CDR3: CASSIEGSYNSPLHF
With B1, the binding result is given as “recognises”.
